According to article PMC11310207:

Tests used:
Test in all cases: fluorescence polarisation
[1] = molecular target: FAM-…, N-terminally FAM-labeled Dyn A (2–17)
[2] = molecular target: FAM-…, N-terminally FAM-labeled Dyn A (2–13)
[3] = molecular target: FAM-GGFLRRI, N-terminally FAM-labeled Dyn A (2–8)

“rNln (Met37–Ser704) E475A, C-terminal 6xHis-tag, catalytically inactive mutant (from UniProt P42676 37-704) (enzyme)” showed a Kd [1] of 3.26 µM, a Kd [2] of 4.69 µM and a Kd [3] of 23.7 µM.
